Experimental data taken from patent US20110190477A1 (G2 INFLAMMATION, published 2011).
No end group written: not given here. *: point of attachment. Biotin = O=C1N[C@H]2[C@H](CS[C@H]2CCCCC(=O)*)N1

T1: peptide 2 (12 mer from the 2nd extracellular loop of human C5aR) (human)
T1 construct: worked out from 22 12 mers offset by one over 173-205; also called peptide no
T1 peptide: Biotin-SGSGYRVVREEYFPPK

T2: peptide 1 (12 mer from the 2nd extracellular loop of human C5aR) (human, not fully specified)
T2 construct: worked out from 22 12 mers offset by one over 173-205; also called peptide no
T2 peptide: Biotin-SGSGLYRVVREEYFPP

T3: human C5a receptor (human, UniProt P21730 1-350)
T3 construct: On human neutrophils, L1.2/hC5aR transfectants or neutrophils of hC5aR knock-in mice; also called hC5aR; C5aR1
T3 chain: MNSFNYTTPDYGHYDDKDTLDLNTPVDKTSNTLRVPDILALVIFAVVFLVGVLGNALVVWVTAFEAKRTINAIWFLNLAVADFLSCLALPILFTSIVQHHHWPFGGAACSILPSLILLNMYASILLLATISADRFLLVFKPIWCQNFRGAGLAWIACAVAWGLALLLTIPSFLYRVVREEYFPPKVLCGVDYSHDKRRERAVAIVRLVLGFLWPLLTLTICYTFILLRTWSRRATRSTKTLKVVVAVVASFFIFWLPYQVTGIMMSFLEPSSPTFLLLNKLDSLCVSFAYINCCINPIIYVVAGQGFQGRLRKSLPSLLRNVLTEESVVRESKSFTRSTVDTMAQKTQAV

T4: peptide PEP1 (residues 9-29 of human C5aR) (human)
T4 construct: Coated directly on a MaxiSorp plate; also called N-terminal 9-29 peptide
T4 peptide: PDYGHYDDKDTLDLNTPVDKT


Legend:
[1] = target: T1, peptide 2 (12 mer from the 2nd …); assay: peptide ELISA, biotin peptide on streptavidin plate
Description: (§1) A set of 22 overlapping peptides (12 mers), each offset by 1 residue from the next, spanning the second extracellular loop (3rd extracellular domain) of human C5aR was synthesised (Mimotopes, Melbourne). Each peptide was made with a biotin group and 4-amino acid linker (SGSG) at its N-terminus. One peptide synthesised, no. 23, was a 33 mer, representing the full length of the 2nd extracellular loop of hC5aR (residues 173-205 from SEQ ID NO:37), also had biotin-SGSG at the N-terminus.
(§2) The experiment was conducted by binding the peptides to a 384-well streptavidin-coated plate then incubating the antibodies with the peptides and detecting bound antibody with an anti-mouse IgG conjugated to horse radish peroxidase (HRP) as follows. Each peptide was dissolved in 200 μl of 60% DMSO to a concentration of 10 mg/ml. Peptides were further diluted 1:1000 to a working strength of 10 μg/ml with PBS/Tween 20/azide solution (0.1% w/v sodium azide in PBS/0.05% Tween 20).
(§3) A 384 well streptavidin-coated plate (Nunc) was blocked with 20 μl of blocking buffer (1% w/v BSA in PBS) per well. The plate was washed 4 times with PBS/Tween20 buffer (0.1% v/v Tween 20 in PBS). 20 μl of diluted peptide solution was transferred into a well and the plate incubated for 1 hour at room temperature. After washing the plate 4 times (as above) 20 μl antibody (0.5, 1, 1.25, 2.5 or 5 μg/ml) was added to the well and the plate was incubated for 1 hour at 20° C. The plate was washed 4 times as above then 20 μlHRP-conjugated anti-mouse IgG (1:5000 dilution in PBS/Tween 20) was added to each well. After a 1 hour incubation at room temperature the plate was washed 3 times (as above) then twice with PBS to remove traces of Tween. The presence of peroxidase was detected by adding 20 μl of freshly prepared TMB Substrate reagent (BD Opt EIA) to each well and incubating at room temperature for 20 min. Finally the plate was read at 650 nm/450 nm.

[2] = target: T2, peptide 1 (12 mer from the 2nd …); assay: as above
Description: as §1, §2, §3

[3] = target: T3, human C5a receptor; assay: 125I-C5a displacement, L1.2/hC5aR transfectants
Protocol: The ability of humanized Abs to inhibit ¹²⁵I-labelled C5a binding to L1.2 cells transfected with hC5aR gene or human neutrophils was tested as described below. Recombinant human C5a was obtained from Sigma Chemical Co. (St. Louis, Mo.). ¹²⁵I-Bolton-Hunter-labelled complement C5a was purchased from NEN-Dupont (Boston, Mass.), with a specific activity of 2200 Ci/mM. Briefly, L1.2/hC5aR stable transfectants were grown for several days prior to an experiment then treated overnight with 5 mM butyric acid to stimulate hC5aR expression prior to the binding assay. Human neutrophils were purified from venous blood collected from healthy volunteers. Neutrophils were separated from other leukocytes by percoll density centrifugation followed by a red blood cell lysis step. Both cell types were washed once in PBS and resuspended in binding buffer (50 mM Hepes, pH 7.5, 1 mM CaCl₂, 5 mM MgCl₂, 0.5% BSA) at a concentration of 1×10⁷/ml. Aliquots of 40 μl (4×10⁵ cells) were dispensed into 96 well microtitre plates, followed by the addition of cold competitor (antibody or human C5a). Cells and cold competitor were incubated for 15 min at room temperature before-radiolabelled C5a was added to a final concentration of 0.4 nM. The final reaction volume was 120 μl. After 60 min incubation at room temperature, the cells were washed three times with 150 μl of binding buffer containing 0.15 M NaCl. Cell pellets were then counted on a TopCount Scintillation Counter (Packard). Samples were assayed in triplicate at each of 6-8 concentrations. Each antibody was tested in at least 3 separate assays. The number of counts in each sample was expressed as a percentage of the maximum ¹²⁵I-C5a binding observed in wells with no added cold competitor after subtraction of background.
Results of this analysis (the displacement curves) for each of the humanized antibodies compared to the mouse antibody 7F3 in human neutrophils and L1.2/hC5aR transfectants are given in FIGS. 11 and 12 respectively. […] These values were obtained using Graphpad Prism software fitting the data to the non-linear equation for one site competition.

[4] = target: T4, peptide PEP1 (residues 9-29 of human …); assay: ELISA, PEP1 coated at 10, 2 and 1 µg/ml
Protocol: A 384-well MaxiSorp plate (Nunc) was coated with a peptide corresponding to residues 9-29 of human C5aR (PEP1), at concentrations of 1-15 μg/ml in PBS/0.01% Tween-20 at 37° C. for 1.5 hours, then washed 3 times. The plate was blocked with 20 μl of blocking buffer (1% w/v BSA in PBS) per well for overnight at 4° C. The plate was washed 3 times with PBS/Tween buffer (0.05% v/v Tween-20 in PBS). 20 μl antibody (final concentration 5 μg/ml) was added to each well and the plate was incubated for 2 hours at 37° C. The plate was washed 3 times as above then 20 μl HRP-conjugated anti-human IgG kappa (1:8000 dilution in PBS/Tween 20) or HRP-conjugated anti-mouse IgG (1:7500 dilution) was added to each well. After a 2 hour incubation at room temperature the plate was washed 4 times (as above). The presence of peroxidase was detected by adding 20 μl of freshly prepared TMB Substrate reagent (BD Opt EIA) to each well and incubating at room temperature for 20 min. Finally after stopping the reaction with 20 μl 1M H₂SO₄ per well the plate was read at 450 nm (reference 620 nm) in a plate reader.
However, the anti-C5aR (CD88) mAb S5/1 (AbD Serotec, Cat No. MCA1283) which was raised against the human C5aR N-terminal peptide 1-31 did bind PEP1 at 5 μg/ml as expected.

| Binder | binding result [1] | binding result [2] | EC50 [3] | binding result [4] |
| --- | --- | --- | --- | --- |
| mouse anti-C5aR monoclonal antibody 7F3 (antibody, V domains shown, Mouse monoclonal from hybridoma ECACC 00110609; also called m7F3; mouse 7F3) VH: QVQLQQSGPELVKPGASVKISCKASGYAFSNSWMNWVKQRPGKGLEWIGRIYPGDGDTKYNGKFKGKATLTADKSSSTAYMQLSSLTSEDSAVYFCARFLLISTVTAVDYWGQGTTLTVSS VL: DVVMTQSPLSLPVSLGNQASISCRSSQSLVHSNGNTYLHWYLQKPGQSPKLLIYKVSNRFSGVPDRFSGSGSGTDFSLKISRVEAEDLGVYFCSQSTLVPLTFGAGTKLELK | binds | binds | 510 pM |  |
| humanized anti-C5aR antibody hAb-J (antibody, human IgG4 S228P, kappa, also called antibody J) light: DVVMTQSPLSLPVTLGEPASISCRSSQSLVHSNGNTYLHWYLQKPGQSPQLLIYKVSNRFSGVPDRFSGSGSGTDFTLKISRVEAEDVGVYFCSQSTLVPLTFGQGTKLEIKTVAAPSVFIFPPSDEQLKSGTASVVCLLNNFYPREAKVQWKVDNALQSGNSQESVTEQDSKDSTYSLSSTLTLSKADYEKHKVYACEVTHQGLSSPVTKSFNRGEC heavy: not shown |  |  | 930 pM | no binding (tested: 5 µg/ml) |
| humanized anti-C5aR antibody hAb-Q (antibody, human IgG4 S228P, kappa, IgG4 with the Ser228Pro mutation; also called antibody Q; anti-C5aR ab) light: DVVMTQSPLSLPVTLGEPASISCRSSQSLVHSNGNTYLHWYLQKPGQSPQLLIYKVSNRFSGVPDRFSGSGSGTDFTLKISRVEAEDVGVYFCSQSTLVPLTFGQGTKLEIKRTVAAPSVFIFPPSDEQLKSGTASVVCLLNNFYPREAKVQWKVDNALQSGNSQESVTEQDSKDSTYSLSSTLTLSKADYEKHKVYACEVTHQGLSSPVTKSFNRGEC heavy: not shown | binds | binds | 860 pM | no binding (tested: 5 µg/ml) |
